Fewer inactive variants are shown than the library holds. Bounds are passed on as bounds.

The source of these data is the RNAGym collection of RNA variant scans (doi:10.1073/pnas.2313332121).

B1: TPR 5TU (parent)
chain: GGAUCUUCUCGAUCUAACAAAAAAGACAAAUCUGCCACAAAGCUUGAGAGCAUCUUCGGAUGCAGAGGCGGCAGCCUUCGGUGGCGCGAUAGCGCCAACGUUCUCAACUAUGACACGCAAAACGCGUGCUCCGUUGAAUGGAGUUUAUCAUG

This data set covers variants of B1. The data set can be described thus: polymerase ribozyme fitness, log enrichment relative to wild type (log ratio); higher = more active; in vitro selection for triplet polymerase activity. The procedure, abridged:
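For each subunit of a heterodimeric triplet polymerase ribozyme, a mutant library was built by PCR and transcribed, then taken through a single in vitro selection round in triplicate. Selection involved annealing to a biotinylated primer, the partner subunit and triplets, incubation frozen at −7 °C, gel excision of extended constructs, capture on streptavidin beads and RT-PCR. Genotypes were retained after Illumina sequencing of inputs and outputs only with ≥10 input reads and ≥1 read in each output. Fitness is defined as the logarithm of a genotype's enrichment relative to wild-type enrichment, using inverse-variance-weighted averages across replicates, with the logarithm taken to base 2.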
As for G58A C75U, the “polymerase ribozyme fitness (log ratio)” value is -1.82. The same measure for C38U G86U: -1.57; for U53A G83C C95U A97C G100A C116G: not above -4.2; for C5G U7A U56A A91C A106G C125A G136A U145A: not above -4.2. The same measure for C10G A47U C54A C72U G81A G92C G133U U135G: not above -4.2; for A19C A39U G84C C93A U148A: not above -4.2. The same measure for G25U U61G: -2.3; for A19U C51U G58C C85U A91U C114U C118U: not above -4.2. C51G A91G G92U U101C: the “polymerase ribozyme fitness (log ratio)” value is not above -4.2. In the case of C10U G70U C87A C118U, the “polymerase ribozyme fitness (log ratio)” value is not above -4.2. To G71A C95U C132U belongs -4.11; to A24C G50C C96G A110U, not above -4.2; to A17U A20C C85U U102G C116G, -3.83. The same measure for C32U C38U C69A U78A C99G U101A U127C: not above -4.2; for U61G A89U C95A C99A U109C G136A U148G C149A: not above -4.2; for A30G C43G G83A: not above -4.2. To C14U C118U belongs -1.65; to C14A G50A C85U G126C, -4.17; to A52G U55A G92U, -0.803. Regarding A21U C69U C87U C96A, the “polymerase ribozyme fitness (log ratio)” value was -1.14. To G58C C79G A107U U134A U139C belongs not above -4.2; to A24U C38A G50U U55A U61G G68C G84U G141A U151G, not above -4.2; to C69A C85G A121C, -3.43. The same measure for G25C G46C C85G C87U G124C C125U U146C: not above -4.2; for C79U U90A A106U: not above -4.2. The same measure for C35A G100A C125G C131G: not above -4.2; for C75U G94C G100U A107G: not above -4.2.

Turning to A17U C38A U53A G81C C95U U104G, the “polymerase ribozyme fitness (log ratio)” value is -4.

On to C96U A115G G136U A142G, for which the “polymerase ribozyme fitness (log ratio)” value was -3.69.

Turning to C10G U15G A23C G62C A97C C125U, the “polymerase ribozyme fitness (log ratio)” value was not above -4.2. The same measure for A23U C36U C85A C96G A97U: not above -4.2; for A29C A39U A52C U101G C125G G126A G143U U146C: not above -4.2. Consider G58C U61A G74U U77G C79U G80C C87A, for which the “polymerase ribozyme fitness (log ratio)” value was not above -4.2. To C87U U109C belongs -3.46.

For A20G G34C C38A C76U U90C C114U, the “polymerase ribozyme fitness (log ratio)” value is not above -4.2. To G50C C57U G59C C99G belongs not above -4.2.

Regarding U15G C103A, the “polymerase ribozyme fitness (log ratio)” value was -1.91. Regarding A24G C125G, the “polymerase ribozyme fitness (log ratio)” value was -3.52. In the case of C5G U31A C54U G67C A110U A121G, the “polymerase ribozyme fitness (log ratio)” value was not above -4.2.

In the case of U109G C116G, the “polymerase ribozyme fitness (log ratio)” value was -0.501.

For the variant A73U U90G G117U G133U, the “polymerase ribozyme fitness (log ratio)” value is not above -4.2. To A91U C108A C114A C129A U146A belongs not above -4.2. As to C54G U102C U144A, the “polymerase ribozyme fitness (log ratio)” value was -3.91. The same measure for A17U A49G C85U C116A: -0.0919; for U13G A17G C96A G143C: -4.19. The same measure for U102G U148A: -3.81. The same measure for C57A C114U: -1.45; for A47C G48U C76G C96U A113C: not above -4.2; for G84U A106U: -2.69. For the variant C38A G94A C123U, the “polymerase ribozyme fitness (log ratio)” value was -0.611. The same measure for A19G C35U U53G C54A G71A U145C: -2.47.

With A41C G67A G81U G94C A107C, the “polymerase ribozyme fitness (log ratio)” value is not above -4.2. To C99U C103A G128A G136U U148G belongs not above -4.2; to A47U G94A U134G, -1.69. On to A28G C75G G88A U139G G141C, for which the “polymerase ribozyme fitness (log ratio)” value is -3.97. As to C76U A97G G100A A142G, the “polymerase ribozyme fitness (log ratio)” value was not above -4.2. To U13G U56A belongs -0.285. To C54U A60G C95U belongs -0.803; to U44C G58A A64G C93G A119G, not above -4.2; to C35G C51U C85U U139G A142U, not above -4.2. With C85U A121U C132A U134A, the “polymerase ribozyme fitness (log ratio)” value was -4.16. To C18U A23U A91U C95G U104C C118A A147U belongs not above -4.2; to C8G A17C C18G A41C A52U G83A G140U, not above -4.2.

C5A C38U A66C C72U C79A C96A G117A: the “polymerase ribozyme fitness (log ratio)” value is not above -4.2. The same measure for A3C C57U U82G G84A U90A C93G C149U: not above -4.2; for C54U G65A C85U A89G U146G: -4.13; for U31A G50A C51G G59A G68C G86C G94U G124U: not above -4.2. The same measure for A24G A40C U55G A97U: not above -4.2; for G48U G59C G81A A97U: -1.88. The same measure for C93U A142U: -1.68; for A41C C95U: -2.15; for A39G C99A: -3.78. For the variant C8A A19G G62A G67C C93A A97U G112U A142G U148A, the “polymerase ribozyme fitness (log ratio)” value was not above -4.2.

For A12C G86C A106U A115U U144A, the “polymerase ribozyme fitness (log ratio)” value was not above -4.2. To C93A A98U C125G C131U belongs -2.4; to C69G A106C A137C, not above -4.2.

With A17U U31G G50C U78G U90G C96G, the “polymerase ribozyme fitness (log ratio)” value is not above -4.2.

Regarding A23C A29C C38U C57G A64C G84U, the “polymerase ribozyme fitness (log ratio)” value is not above -4.2. The same measure for A22G C27U A47U U56G C57G U77A C93A G143A: not above -4.2.

For G141U A142C, the “polymerase ribozyme fitness (log ratio)” value was -3.58. Regarding U4G A21U C32G C38G C93G U146A, the “polymerase ribozyme fitness (log ratio)” value was not above -4.2. Turning to A21C U33G C87U U145A A150U, the “polymerase ribozyme fitness (log ratio)” value is not above -4.2. The same measure for C51U A52G: -1.18.
